Source: the supplement of paper PMC9233669
Variants at the floor of the assay were thinned out.

How the values were obtained:
biotinyl-Phe-oxazolone = experiment: self-aminoacylation, catalytic enhancement (BFO) (fold over background); higher = more active; k-Seq, kA / k0A0; sequences stand for … in GGGAAUGGAUCCACAUCUACGAAUUC…UUCACUGCAGACUUGACGAAGCUG
Outline: (§1)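 Mutagenized RNA pools with a 21-nt variable region (0.43 μM) were reacted with each biotinyl-aminoacyl-oxazolone at 2–1250 μM for 90 minutes at room temperature, in 50 μL HEPES/NaCl/KCl/MgCl2/CaCl2 buffer containing 5% acetonitrile at pH 6.9–7.0. RNA captured on streptavidin was quantified by triplicate qPCR and by Illumina sequencing. The fraction reacted for each sequence was fit to a pseudo-first-order model with bootstrapping, and catalytic enhancement is the median kA divided by the uncatalyzed rate, taken as the low-activity peak of a bimodal Gaussian fit.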

biotinyl-Ile-oxazolone = experiment: self-aminoacylation, catalytic enhancement (BIO) (fold over background); higher = more active; k-Seq, kA / k0A0; sequences stand for … in GGGAAUGGAUCCACAUCUACGAAUUC…UUCACUGCAGACUUGACGAAGCUG
Outline: as §1

biotinyl-Met-oxazolone = experiment: self-aminoacylation, catalytic enhancement (BMO) (fold over background); higher = more active; k-Seq, kA / k0A0; sequences stand for … in GGGAAUGGAUCCACAUCUACGAAUUC…UUCACUGCAGACUUGACGAAGCUG
Outline: as §1

biotinyl-Val-oxazolone = experiment: self-aminoacylation, catalytic enhancement (BVO) (fold over background); higher = more active; k-Seq, kA / k0A0; sequences stand for … in GGGAAUGGAUCCACAUCUACGAAUUC…UUCACUGCAGACUUGACGAAGCUG
Outline: as §1

biotinyl-Leu-oxazolone = experiment: self-aminoacylation, catalytic enhancement (BLO) (fold over background); higher = more active; k-Seq, kA / k0A0; sequences stand for … in GGGAAUGGAUCCACAUCUACGAAUUC…UUCACUGCAGACUUGACGAAGCUG
Outline: as §1

biotinyl-Trp-oxazolone = experiment: self-aminoacylation, catalytic enhancement (BWO) (fold over background); higher = more active; k-Seq, kA / k0A0; sequences stand for … in GGGAAUGGAUCCACAUCUACGAAUUC…UUCACUGCAGACUUGACGAAGCUG
Outline: as §1

Row | Sequence | self-aminoacylation (biotinyl-Phe-oxazolone) | self-aminoacylation (biotinyl-Ile-oxazolone) | self-aminoacylation (biotinyl-Met-oxazolone) | self-aminoacylation (biotinyl-Val-oxazolone) | self-aminoacylation (biotinyl-Leu-oxazolone) | self-aminoacylation (biotinyl-Trp-oxazolone)
1 | ACGUUUGCAAAUAGUCGCAAG [Fam3.1 aminoacylation ribozyme variant] | 1.27 | 1.57 | 1.38 | 1.2 | 1.29 | 1.2
2 | ACGUUUGCUAAUUGUCGCAAG [Fam3.1 aminoacylation ribozyme variant] | 1.96 | 1.6 | 1.81 | 1.77 | 2.06 | 2.66
3 | ACUACCCUAGUCAUCGAGUGA [Fam2.1 aminoacylation ribozyme variant] | 8.71 | 2.95 | 4.62 | 2.64 | 5.39 | 5.01
4 | ACUACCCUGGUCAGCGAGUGA [Fam2.1 aminoacylation ribozyme variant] | 38.3 | 4.51 | 6.39 | 4.6 | 6.39 | 6.58
5 | ACUACCCUGGUCAUCGGGUGA [Fam2.1 aminoacylation ribozyme variant] | 293 | 20.6 | 48 | 20.9 | 50.1 | 57.6
6 | ACUACCCUGUUCAUCGAGUGA [Fam2.1 aminoacylation ribozyme variant] | 6.68 | 2.28 | 3.17 | 2.33 | 3.27 | 5.04
7 | ACUACUCUGGUCAUCGAGUGA [Fam2.1 aminoacylation ribozyme variant] | 36.2 | 4.09 | 5.17 | 3.45 | 8.12 | 7.79
8 | ACUCACCCAGGUCAUCGGGUG [Fam2.2 aminoacylation ribozyme variant] | 26.2 | 4 | 4.37 | 4.51 | 5.25 | 4.81
9 | ACUCACCUAGGUCAUCCGGUG [Fam2.2 aminoacylation ribozyme variant] | 39.5 | 4.6 | 6.22 | 5.7 | 7.63 | 7.81
10 | ACUCACCUAGGUCAUCGAGUG [Fam2.2 aminoacylation ribozyme variant] | 7.77 | 2.85 | 3.27 | 2.86 | 4.67 | 2.72
11 | ACUCACCUAGGUCAUCGGGUA [Fam2.2 aminoacylation ribozyme variant] | 157 | 11.4 | 19.9 | 10.1 | 27 | 14.9
12 | ACUCACCUAGGUCCUCGGGUG [Fam2.2 aminoacylation ribozyme variant] | 37.1 | 5.2 | 5.36 | 4.46 | 5.78 | 8.03
13 | ACUCACCUAGGUCGUCGGGUG [Fam2.2 aminoacylation ribozyme variant] | 6.16 | 2.58 | 2.56 | 2.4 | 2.25 | 3.42
14 | ACUCACCUAGGUGAUCGGGUG [Fam2.2 aminoacylation ribozyme variant] | 39.2 | 5.05 | 5.21 | 4.87 | 6.01 | 8.44
15 | ACUCACCUAUGUCAUCGGGUG [Fam2.2 aminoacylation ribozyme variant] | 33.4 | 4.11 | 5.4 | 4.18 | 6.52 | 6.08
16 | ACUCACCUUGGUCAUCGGGUG [Fam2.2 aminoacylation ribozyme variant] | 37.8 | 4.9 | 6.92 | 5.78 | 7.85 | 9.04
17 | ACUCCCCUAGGUCAUCGGGUG [Fam2.2 aminoacylation ribozyme variant] | 101 | 8.61 | 13.7 | 10.3 | 18.6 | 13.8
18 | ACUCUCCUAGGUCAUCGGGUG [Fam2.2 aminoacylation ribozyme variant] | 49.4 | 5.49 | 8.52 | 5.61 | 10.2 | 8.31
19 | ACUGACCUAGGUCAUCGGGUG [Fam2.2 aminoacylation ribozyme variant] | 32.9 | 4.97 | 6.84 | 5 | 7.25 | 7.32
20 | ACUUACCUAGGUCAUCGGGUG [Fam2.2 aminoacylation ribozyme variant] | 48.7 | 7.28 | 10.6 | 5.61 | 10.8 | 10.1
21 | AGCACCCUGGUCAUCGAGUGA [Fam2.1 aminoacylation ribozyme variant] | 6.9 | 4.58 | 8.03 | 3.89 | 6.84 | 9.35
22 | AGGACCCUGGUCAUCGAGUGA [Fam2.1 aminoacylation ribozyme variant] | 36.7 | 4.59 | 10.5 | 5.05 | 10.9 | 10.7

Row | Sequence | self-aminoacylation (biotinyl-Phe-oxazolone) | self-aminoacylation (biotinyl-Ile-oxazolone) | self-aminoacylation (biotinyl-Met-oxazolone) | self-aminoacylation (biotinyl-Val-oxazolone) | self-aminoacylation (biotinyl-Leu-oxazolone) | self-aminoacylation (biotinyl-Trp-oxazolone)
23 | AGGAUUGCUAAUAGUCGCAAG [Fam3.1 aminoacylation ribozyme variant] | 2.92 | 1.62 | 1.52 | 1.88 | 1.66 | 2.52
24 | AGGUUCGCUAAUAGUCGCAAG [Fam3.1 aminoacylation ribozyme variant] | 12.3 | 2.82 | 2.81 | 2.34 | 3.26 | 4.12
25 | AGGUUUGCUAAUAGCCGCAAG [Fam3.1 aminoacylation ribozyme variant] | 4.78 | 1.2 | 1.15 | 0.935 | 1.11 | 2.25
26 | AGGUUUGCUAAUAGUAGCAAG [Fam3.1 aminoacylation ribozyme variant] | 1.05 | 1.49 | 1.41 | 1.22 | 1.43 | 2.18
27 | AGGUUUGCUAAUAGUCCCAAG [Fam3.1 aminoacylation ribozyme variant] | 4.38 | 0.901 | 0.915 | 0.872 | 0.779 | 1.97
28 | AGGUUUGCUAAUAGUCGCAAG [Fam3.1 aminoacylation ribozyme variant] | 22 | 1.56 | 1.75 | 1.38 | 1.41 | 6.61
29 | AGGUUUGCUAAUAGUCGCAGG [Fam3.1 aminoacylation ribozyme variant] | 4.15 | 1.97 | 2.21 | 1.52 | 1.7 | 1.99
30 | AGGUUUGCUAAUAGUCGCCAG [Fam3.1 aminoacylation ribozyme variant] | 1.14 | 1.39 | 1.51 | 1.35 | 1.52 | 2.22
31 | AGGUUUGCUAAUAGUCGCGAG [Fam3.1 aminoacylation ribozyme variant] | 2.48 | 1.56 | 1.65 | 1.78 | 1.61 | 2.59
32 | AGGUUUGCUAAUAGUCGUAAG [Fam3.1 aminoacylation ribozyme variant] | 29.2 | 1.22 | 1.23 | 1.08 | 1.1 | 7.24
33 | AGGUUUGCUGAUAGUCGCAAG [Fam3.1 aminoacylation ribozyme variant] | 2.52 | 1.49 | 1.53 | 1.2 | 1.83 | 1.83
34 | AGUAACCUGGUCAUCGAGUGA [Fam2.1 aminoacylation ribozyme variant] | 16.8 | 3.32 | 5.06 | 3.25 | 5.02 | 4.62
35 | AGUACCCUGCUCAUCGAGUGA [Fam2.1 aminoacylation ribozyme variant] | 1.88 | 1.2 | 2.06 | 1.28 | 1.77 | 1.88
36 | AGUACCCUGGGCAUCGAGUGA [Fam2.1 aminoacylation ribozyme variant] | 47 | 2.96 | 6.28 | 3.16 | 6.54 | 7.71
37 | AGUACCCUGGUCACCGAGUGA [Fam2.1 aminoacylation ribozyme variant] | 54.5 | 4.52 | 8.83 | 4.11 | 9.52 | 11.1
38 | AGUACCCUGGUCAUAGAGUGA [Fam2.1 aminoacylation ribozyme variant] | 15.4 | 2.33 | 4.15 | 2.48 | 4.1 | 4.67
39 | AGUACCCUGGUCAUCGAGUGG [Fam2.1 aminoacylation ribozyme variant] | 6.94 | 2.26 | 5.15 | 2.65 | 4.23 | 4.19
40 | AGUACCCUGGUCAUCGAGUGU [Fam2.1 aminoacylation ribozyme variant] | 29.9 | 5.14 | 14.2 | 5.27 | 13.6 | 11.7
41 | AGUACCGUGGUCAUCGAGUGA [Fam2.1 aminoacylation ribozyme variant] | 24.1 | 3.61 | 5.19 | 3.39 | 5.87 | 5.99
42 | AGUACCUUGGUCAUCGAGUGA [Fam2.1 aminoacylation ribozyme variant] | 19 | 4.3 | 6.27 | 4.07 | 6.37 | 8.17
43 | AGUAGCCUGGUCAUCGAGUGA [Fam2.1 aminoacylation ribozyme variant] | 37.9 | 4.84 | 7.32 | 4.85 | 7.91 | 8.44
